Test results published in US8580556B2, “Sulfonylurea-responsive repressor proteins” (E. I. du Pont de Nemours and Company, priority 2008, dated 2013).
Like-named read-outs stand apart in the source and are kept apart here.

B1: L1-29: library L1 hit, sulfonylurea-responsive TetR(B) variant, SEQ ID NO: 10 (protein)
chain: MGSRLDKSKVINSALELLNEVGIEGLTTRKLAQKLGVEQPTLYWHVKNKRALLDALAIEMMDRHQTHFCPLEGESWQDFLRNTAKSMRCALLSHRDGAKVWLGTRWTEKQYETPENMLAFLCQQGFSLENALYAWSAVCNFTLGCVLSDQERQVAKEERETPTTDSMPPLLRQAWELSDHQGAEPAFLFGLELIICGLEKQLKCESGS
modifications: Sulfonylurea responsive repressor L1-29
B2: L1-31: library L1 hit, sulfonylurea-responsive TetR(B) variant (protein)
chain: MGSRLDKSKVINSALELLNEVGIEGLTTRKLAQKLGVEQPTLYWHVKNKRALLDALAIEMLDRHATHFCPLEGESWQDFLRNNAKSMRCALLSHRDGAKVMLGTRATEKQYETVENRLAFLCQQGFSLENALYAVRAVHWFTLGCVLIDQEMQVAKEERETPTTDSMPPLLRQAYELYDHQGAEPAFLFGLELIICGLEKQLKCESGS
modifications: Sulfonylurea responsive repressor L1-31
B3: L1-38: library L1 hit, sulfonylurea-responsive TetR(B) variant (protein)
chain: MGSRLDKSKVINSALELLNEVGIEGLTTRKLAQKLGVEQPTLYWHVKNKRALLDALAIEMADRHHTHFCPLEGESWQDFLRNNAKSMRCALLSHRDGAKVWLGTAWTEKQYETTENMLAFLCQQGFSLENALYAWRAVTMFTLGCVLRDQEWQVAKEERETPTTDSMPPLLRQALELGDHQGAEPAFLFGLELIICGLEKQLKCESGS
modifications: Sulfonylurea responsive repressor L1-38
B4: L1-24: library L1 hit, sulfonylurea-responsive TetR(B) variant (protein)
chain: MGSRLDKSKVINSALELLNEVGIEGLTTRKLAQKLGVEQPTLYWHVKNKRALLDALAIEMLDRHNTHFCPLEGESWQDFLRNSAKSMRCALLSHRDGAKVLLGTAVTEKQYETTENSLAFLCQQGFSLENALYAIRAVRTFTLGCVLVDQERQVAKEERETPTTDSMPPLLRQAKELLDHQGAEPAFLFGLELIICGLEKQLKCESGS
modifications: Sulfonylurea responsive repressor L1-24
B5: L1-2: library L1 hit, sulfonylurea-responsive TetR(B) variant, SEQ ID NO: 3 (protein)
chain: MGSRLDKSKVINSALELLNEVGIEGLTTRKLAQKLGVEQPTLYWHVKNKRALLDALAIEMLDRHATHFCPLEGESWQDFLRNNAKSFRCALLSHRDGAKVCLGTAVTEKQYETMENILAFLCQQGFSLENALYARRAVIAFTLGCVLWDQEYQVAKEERETPTTDSMPPLLRQARELIDHQGAEPAFLFGLELIICGLEKQLKCESGS
modifications: Sulfonylurea responsive repressor L1-02
B6: L1-20: library L1 hit, sulfonylurea-responsive TetR(B) variant, SEQ ID NO: 6 (protein)
chain: MGSRLDKSKVINSALELLNEVGIEGLTTRKLAQKLGVEQPTLYWHVKNKRALLDALAIEMMDRHQTHFCPLEGESWQDFLRNNAKSMRCALLSHRDGAKVFLGTAWTEKQYETVENLLAFLCQQGFSLENALYALNAVATFTLGCVLWDQEKQVAKEERETPTTDSMPPLLRQAHELGDHQGAEPAFLFGLELIICGLEKQLKSESGS
modifications: Sulfonylurea responsive repressor L1-20
B7: L1-28: library L1 hit, sulfonylurea-responsive TetR(B) variant (protein)
chain: MGSRLDKSKVINSALELLNEVGIEGLTTRKLAQKLGVEQPTLYWHVKNKRALLDALAIEMLDRHATHFCPLEGESWQDFLRNNAKSMRCALLSHRDGAKVWLGTAWTEKQYETPENVLAFLCQQGFSLENALYASRAVVTFTLGCVLTDQEKQVAKEERETPTTDSMPPLLRQAWELLDHQGAEPAFLFGLELIICGLEKQLKCESGS
modifications: Sulfonylurea responsive repressor L1-28
B8: L1-9: library L1 hit, sulfonylurea-responsive TetR(B) variant, parent of L2 and L4 (protein)
chain: MGSRLDKSKVINSALELLNEVGIEGLTTRKLAQKLGVEQPTLYWHVKNKRALLDALAIEMLDRHATHFCPLEGESWQDFLRNNAKSMRCALLSHRDGAKVCLGTGFTEKQYETAENSLAFLCQQGFSLENALYAMQAVCIFTLGCVLLDQELQVAKEERETPTTDSMPPLLRQALELKDHQGAEPAFLFGLELIICGLEKQLKCESGS
modifications: Sulfonylurea responsive repressor L1-09

Tested on: tetA promoter (PtetA)-lacZ reporter in E. coli KM3
Type: cell-based
Settings: for relative β-galactosidase activity, inducer atc: anhydrotetracycline 0.4 μM; for relative β-galactosidase activity, inducer Ci: chlorimuron 20 μg/ml (20 ppm); for relative β-galactosidase activity, inducer Ns: nicosulfuron 20 μg/ml (20 ppm); for relative β-galactosidase activity, inducer None / relative β-galactosidase activity, No inducer: no inducer; for relative β-galactosidase activity, inducer Rs: rimsulfuron 20 μg/ml (20 ppm); for relative β-galactosidase activity, inducer Ts: thifensulfuron 20 μg/ml (20 ppm); for relative β-galactosidase activity, inducer Tb: tribenuron 20 μg/ml (20 ppm); for response to thifensulfuron-methyl (Ts), blue colony color: 20 μg/ml Ts, 96-well re-test, FIG. 3
[1] = Table 4, chlorsulfuron 20 μg/ml (20 ppm), 48 hrs at 30° C.
[2] = Table 4, ethametsulfuron 20 μg/ml (20 ppm), 48 hrs at 30° C.
[3] = Table 4, sulfometuron 20 μg/ml (20 ppm), 48 hrs at 30° C.
[4] = Table 10, chlorsulfuron 2 ppm, 48 hours at 30° C.
[5] = Table 10, metsulfuron 2 ppm, 48 hours at 30° C.
[6] = Table 10, sulfometuron 2 ppm, 48 hours at 30° C.
[7] = Table 4, metsulfuron 20 μg/ml (20 ppm), 48 hrs at 30° C.

Molecule | relative β-galactosidase activity, inducer atc (Table 4, 48 hrs at 30° C.) | relative β-galactosidase activity, inducer Ci (Table 4, 48 hrs at 30° C.) | relative β-galactosidase activity, inducer Cs [1] | relative β-galactosidase activity, inducer Es [2] | relative β-galactosidase activity, inducer Ns (Table 4, 48 hrs at 30° C.) | relative β-galactosidase activity, inducer None (Table 4, 48 hrs at 30° C.) | relative β-galactosidase activity, inducer Rs (Table 4, 48 hrs at 30° C.) | relative β-galactosidase activity, inducer Sm [3] | relative β-galactosidase activity, inducer Ts (Table 4, 48 hrs at 30° C.) | relative β-galactosidase activity, inducer Tb (Table 4, 48 hrs at 30° C.) | Inducer preference (Table 8, inducers given as numbers without key) | relative β-galactosidase activity, inducer Cs [4] | relative β-galactosidase activity, inducer Es (Table 10, ethametsulfuron 2 ppm, 48 hours at 30° C.) | relative β-galactosidase activity, inducer Ms [5] | relative β-galactosidase activity, No inducer (Table 10, 48 hours at 30° C.) | relative β-galactosidase activity, inducer Sm [6] | relative β-galactosidase activity, inducer Ms [7] | response to thifensulfuron-methyl (Ts), blue colony color
B1 | 0.0 | 20.9 | 15.8 | 1.7 | 0.1 | 0.0 | 0.1 | 2.7 | 0.0 | 0.3 | 9 (weak) | 0.2 | 0.3 | 0.3 | 0.1 | 0.2 | – | –
B2 | 0.4 | 1.1 | 1.4 | 13.7 | 0.5 | 0.3 | 0.4 | 0.9 | 0.9 | 0.1 | – | – | – | – | – | – | 0.5 | –
B3 | 6.4 | 15.3 | 14.0 | 14.8 | 8.7 | 9.5 | 9.5 | 18.3 | 16.7 | 15.8 | – | – | – | – | – | – | 14.7 | –
B4 | 0.1 | 22.1 | 3.3 | 0.2 | 0.3 | 0.1 | 0.3 | 3.1 | 0.3 | 1.6 | – | – | – | – | – | – | 0.4 | –
B5 | 1.2 | 13.6 | 4.1 | 5.8 | 1.3 | 1.0 | 1.3 | 4.7 | 1.6 | 1.7 | – | – | – | – | – | – | 1.9 | most intensely responding
B6 | 2.0 | 13.5 | 22.0 | 15.0 | 1.6 | 1.4 | 2.0 | 6.0 | 2.6 | 2.6 | – | – | – | – | – | – | 12.4 | most intensely responding
B7 | 0.0 | 14.6 | 5.8 | 0.8 | 0.1 | 0.0 | 0.2 | 1.1 | 0.1 | 0.3 | – | – | – | – | – | – | 18.8 | –
B8 | 0.3 | 9.8 | – | – | 0.3 | 0.3 | 0.4 | 0.6 | 1.1 | 0.4 | – | 2.2 | – | 0.9 | 0.9 | 0.9 | 1.2 | most intensely responding
